Measured values from the domain aggregation screens of Martell et al. (2025).

Assay: soluble fraction after stress (log2 fold change); higher = more stays soluble; pooled small domains, quantitative proteomics
Conditions: stress: pH 4
Summary of the method: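 Pooled custom libraries of small protein domains were stressed at pH 4 and then measured by high-throughput quantitative proteomics. The fold change in the amount of each domain that stays soluble after the acid stress serves as a measure of aggregation propensity. Fold changes are given on a log2 scale, and higher values mean more of the domain stayed soluble.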

Sequence | soluble fraction (log2)
HMFDGTLSIYPNPSKGIFNLDLLNVKDGEYTITVDNLLGQEVYSEIRNVINSSSKTLDLSNLTKGV | -0.433
HMFDLKKIYGTILDETKSSLLLSTDDGREVQIIKTDGTEVLASGLGVYVEVAYRDETPDGYPIALTI | -0.298
HMFDTVKIGKRIAELRKKRDMTQFELADRLGISYQAVSNWERGNSMPDIAKLPELAEIFGVTVDEILG | 0.135
HMFEARNTTFSEDGKTITETYGVKRIETEFVSDSTIVQKLYDNDVLTKTKTITFSADGLSIKEDV | -1.33
HMFEDYNELDEYLETRFIPTYVLLKQRKNANGEIDHFPSIRLQHIMALKLSEAELEHVMNYLKEKNIRVG | -0.182
HMFEKVKLTLTIPSKYSGSTYSALRNRMNKFSKEEWLSNGDLKIEIEVTGGQKTDIYTLINKLTNGEAIIE | -0.203
HMFELDELDLVILKNLANGLSKKQIRVKLKKMDLRPNSESAIDKRVSKLFDEFGAKNSTELVAKLIREGL | -0.234
HMFELTVGTPIRVIREPYFGKLGTVTELPAQLMVVESGTEVRVLKAKIEGEGEVLVPRANVEIIATG | -0.77
HMFELVKISENIPIRDLAETLKTTPNEIIKELMVFGVLANINQTLNFDLASKVADKLGFEVELL | -0.363
HMFEMPTSLVRTLSAIAIKQPVMQSEIIKLRGAGAYDHIKELIIRELVHRKEEGRSPILTTTKKFQEYFRL | -0.948
HMFERIYVFSRDGDIIELPKGSTVLDFAYHVHTHVGNRAQAARVNKRYVPLTYQLKTGEQVEIIIS | -1.05
HMFEYDEEEYEKLGPNADLTIKSMTDWGQSLVRKGVWSESDFEEFKIMGGTAQGLRALQKVRSYY | -1.25
HMFFAGLSPEAARTLDSLPLHSWSSVEQIARQAGLNIETVRKELGLLELSGIALSRQGRFRRA | 0.0761
HMFFFILNKGAKSGGEITHAVLNGSIVSKPAGWDAFHGLVLAKEKLSSEEIQRQMKELGVEMEIVPL | -1.18
HMFGDQMQSYLSRLSQIDVDIIALKYGDNFTYREIGLILEMSEDSVRQRAVRARKKLETMIQKG | -1.29
HMFGEDNLKSKEIKERVTEVAKHADDPVWIEARRKWKDENPDQNVKDYQQAYISGRIHELPWDVSYI | -0.0276
HMFGEKEFYQWIGKTAGEKFSGLPAAVIKSLYKYWREYNLSEEDIMGFIRQTELLPKRTPLDVELFFEK | -1.36
HMFGELTPDTAKRFLLTAREQEMASLIAQGLTNKEIAFRLGISEATVRTHIYNLFQKVGVQSRIELLNVLH | -0.162
HMFGNTGETSGTGVAFTRSPVDGENKIFGEFLVNAQGEDVVAGIRTPQPISEMEQAFPEVYSKFESVAEIL | -0.305
HMFHDALVSFAERRVIFMKELVNRLNEARKAYYEGESIMSDKEYDNLYDKLVKMELTTGVVLPNSPTEEVG | -0.754
HMFIEHSKYKLSFKYNQLGKISNVINSNNGIIMDKHFDQNITLLAKLTENTFQEIIKHFPTIIIKRL | -0.539
HMFIEPPSLEELERRLRGRGTETDDVVDMRMRTALVELSQKMEYDYRLVNDDLDEATRQLVAYVNEIAEQ | -0.679
HMFIPMTDAQRHLFANKLAKLPELSEYSRGTESYEDFAIRIADMLLEPPKFRMFYPLLEQLGF | -1.19
HMFIVTDQMQRVLDYITEKEKATNNDLEELLGVKSTRIYTITRKLIQHNLIIPVGKGKNKYYIL | -0.724
HMFKDVTVPSVINKTEAEATNMLKGLNLVVSVEYEENANKSDGIVTAQNVNANKVIKEGETVTITVNKQP | 0.22
HMFKNWMPFDEARIFVRKLKFNSHDEFRKYLKANEINIPSKPWSTYKGKGWVSIGDFLGTHR | -0.308

Sequence | soluble fraction (log2)
HMFLPGETFDVKIVKIGEGENQGVGYLDDGTMIVIENGRDHLNELARVIVTRVLQNSAGQMIFSDYEE | -1.76
HMFLTPLEETRLAIEEVVIAKNIAIDLFPRESAIRKQQHELIYHYHLKGLTVGTEKNKRLRIFPRGY | -0.52
HMFLTSDEGKIMQLLEDKQRITRKDAQELLGVSQSTAGRILKTLVDNGQITQRGGGRTTRYELIK | 0.22
HMFMKNTEVALAIKGKFSNQTTITSKELVLFLSDLFPELSNKTIPWKINQLKAENLIYQTGRGIYTFN | -0.809
HMFMMVAGHLQIKNEKYYMVLELRTEQGERKTKWIGTGLAVKGNKRRAEAMLEETRTKYLSPV | -0.177
HMFMPGTIIKQFRELRNYSQDYVSRKMGISQNAYSKIENNITQLTVTHVKQLSSILDVPIVELLR | -0.366
HMFMSDDDIRILVKEWLQSQNRKSYQLAEEIGIRPQTFYAQMSVRKISANTKKALSRIIPGL | 0.0503
HMFMSKTAMVAIISEADKYGLFNIPEGLSVEKTADEIFEGHIEVDFDKLKNELDFVYKNEALEKQFQEN | -1
HMFNPEQDPKQLTGRERAVADLIGLGANNAEIAIRLSMSERTVKAHLTSIFQQLNVRDRVQLALVMNQL | -0.541
HMFPASQPVPTDLNQIVRAGLEVFSGRLEGIDVRVSLEPELPRVNVDPEHFKRIVVNLVDNAAEAMQNS | -0.0189
HMFPATAPQLKAVHAILGKQGISDELDKLARVNEWLVGLNKEPVAAISELDKHTTSGLIDHLQGELNE | -0.131
HMFPDLSPEQQRIVDVLTKSNDLQLNQLSVKTGIPIGDITSILFQMEMMGVVKPMAGGNYHLL | -0.0768
HMFPDLTEDEQLIVDVLQRTGDLQINSLIVEANIPVNKMSEILFELEMKGVIRTLAGGVYQLL | -1.84
HMFPDRLRELRKGRNITLETLAEEMNKHLEPGQKPNTAAQIGNWERGDRSPSYIEVRKLADFFNVSMDFL | -0.512
HMFPELNAEETQVVQLLQKQTEGMQVNSLVVESNIPITRMSGILFELELKGIIRNYAGGVYKL | -0.951
HMFPELSEEAKVIVDALSKENDQQLNVLIANTGMAVGTMQAKLFELEMQGVVKPLAGSVYHLM | 0.22
HMFPELTDDEQLIVSTLAKTNDMQINMLAVRTGIPVQRMSALLFSLEMKGVVKMYAGGTYHLL | -0.0499
HMFPNQLLISRLSNQLSASERFAAVSSIAQLKNIDYDVLHVLVHTMNSDPNSNVRLAALEALSR | -0.313
HMFPQQGEIRQGVIASITPDQILVNVGTKSEGIISGKELEAISKSERDSLNVDQKIAVYILDPEDSNG | -0.391
HMFQNPSQVVTTRVGELRAAIPTAQQGRITMGVAVVEDANSVRSVLISTSEPRGYLRPGVTLGPGETMV | 0.106
HMFQPFFENLRKASIPVSLREYLTFLEGMKKGLVTYDIEAFYFLARAAMVKDERNIDKFDRAFSATFKG | 0.0456
HMFQTAADVAYRIISQKILDGEFPPGMKLSRRKMAEVTSVSVIPVIEALKKLEEDGLVESKPQWGSFVTI | -0.246
HMFQYEKIKDYILTGLEEGTWQAGDKIPSEAELVMSLNVSRMTVNRAVRELANSGLLVRIPGAGTFVATE | -0.886
HMFSIDRNIRRLRKEAGLTQEELAQKLFVTRQTISLWELGKVHPDLETLQKLAEQFQVDLLQVLYGPE | -2.41
HMFSLDMDRLVRPGFMASGNVTFSDGVTGKWALDQMGRLALETAQKGYQPSPADVQAFQRELQQQLQRQG | -0.178
HMFSPTKLKEKRESQGLSQSQLASSLGISRASYFNWESGKTKPNQNNLSKLSEILNVDPRYF | 0.0274

Sequence | soluble fraction (log2)
HMFSSVSVPAELSNQRFDKVVAELTPDLSRSKIKQLILLGKVLLNGEVTPPKQKVETGDEIEIFYTRQIE | -0.23
HMFTLDIGTIIRNRRLELNLTLEEIGNAVGVSKSTVQKWENGFISNMKRDKISALAKVLNINPVTLITGEY | -0.711
HMFTLNEIIGQKIRNARISAGLTLDELSKMTGISAAQLSSLETGYRRANIDTLYAIAKAIGIDVSNLLKY | -0.626
HMFTRFTVAQDGWTIGGFTAKEMAVSTAKQHAVDTGKPVTVVAHVAGGGSREAIFNSDGTNDKIWN | 0.157
HMFTYEETIGKSADVYLTIPALKAGKGKIIISVRGSVHELDAMTNNAEKISTGAVVKIVRIEHGNILLVEN | -0.44
HMFVEKDSIINKGNNSYNFVITDNNNKVLVEYNGLLPDLFKEEQGVVIEGRLKSDFIIHAFTVF | -0.462
HMFVGVDMAVKEEIGKEGVAFTDLRPAGKVSIGDDVYDAVSETGAFITRGTSVRVLKYQAGQVYVVK | 0.354
HMFVTFFHELKSAGVPVSLREYLTLMEAMDRDLASRRVEEFYYLARTALVKDERNLDKFDRVFGHVFKGL | -1.69
HMFWVESDVDFVDKTSAHNAIKENERVIGMYISYRLNGTWTTEQYVGIDTSKDNWENPDNWNIL | -0.381
HMFYLPEPLTEQELRILGMLLDGRSNPEIAAELFIAVGTAKWHVHNILQKLGVANRAQAIVKAHELGLT | -1.88
HMFYNELMNFIVYKDSQKIGKIVNINDKLPQPVFEVLINDKKFMVPIHDDFIEKIDKEKKSIHIVIPDGLL | -1.01
HMFYWTDLIGLDVINTADERLGKVVGLIETGANAVLRVMGDDQVERLLPFGSAVVLTVEKEAGQIRVEW | -2.05
HMGAARVTPLYNLRLREGPSTATARLDVVPRGTTLEVRAWDETGDWAQVEYRGQIGWIAAWLAEVEGEAP | -0.739
HMGADSFTGYTPIHKIDNPSDGINDGASYVVYFQKDGTDPTEFYKAVNANASTLAQLTSGTEYDLASSKKL | -0.722
HMGAEIRDKVRAALAGLNPRAAEIFVMRYFDGYGNREIARLLNTSWSTIAVTLHRTRAKLQKELK | 0.0552
HMGAGDKQAQQASLMQIIALQKEGMALGLVEPKHLYHSFSKMIENAGFKDVQSFAVDPSTQQ | -0.199
HMGAGEQMLPKVMFAEGDRVVHKVFGEGTVVTVDRPAQTYDIQFDKLRGTRRIMFRAELEGI | -0.922
HMGAGLDDLVRKSLHNAGLKADDNVVSWISGNLGSDRMVSRMELEKLVLFVAGQSEITLEDAQAVIGD | -0.374
HMGAGLKIGNDHEYANYLEYKVSVEKYAPGAILGEIKQKGIQFNTTISKTTFYRYITDGVFLTITNADLPV | -0.138
HMGALTGQERRAEIMNILRQSTMPLSGAALGKQLGVSRQVVVQDIALLRQSGEEIYATNRGYVTG | ≥ 0.43
HMGAQPLIEPLSERELEVLALIAEGLTNAEIGRRLFIATGTVKRHVNTIYGKLDVHGRIEAIARARDLHLI | -0.66
HMGAQRDFELQLIDVIRQNPGLTYKAYGEKLSVSQATVKRLVAKLKETGSIRREGSQRKGTWIITDD | 0.252
HMGARWPIQDRPLTATEAAAVRRMYAGGLPHGRSKNSVITEVWGDLSNKPKRLDWLNQALEGGA | 0.357
HMGASGVEVPDVAGMSTAQAVSSLEQKGFVVNRTESYDAGVEKGNVISQSPEGGTKAPNGSAVTIRISQGA | 0.081
